Experiments:
Caco-2 cells = format: cell-based, Human
Description: Human colon carcinoma cells (Caco-2) were detached from 25 cm^2 stock culture flasks using a 10 min incubation at 37° C. with 0.5 ml of a trypsin/EDTA solution (0.5% trypsin, 5.3 mM EDTA). The cells were then suspended in 5 ml of Dulbecco's minimum essential medium, supplemented with 15% fetal bovine serum (FBS), L-glutamine (1%), and essential amino acids (1%), and counted using a coulter counter.
Radioiodination of BBI and BBIssPal was carried out using the chloramine-T method [McConahey, P. C. and Dixon, F. J., Meth. Enzymol., 70:221-247 (1980)]. Confluent, 14-day old cell monolayers were washed once with, and then incubated in, serum-free Dulbecco medium at 37° C. for 30 min. Subsequently, the incubation medium was replaced with serum free medium containing ^125 I-BBI (10 μg/ml), either as native-BBI or as BBIssPal or BBIssOleic, and the monolayers were incubated for a further 60 min at 37° C. The monolayers were then washed three times with ice-cold PBS, and then exposed to trypsin (0.5%, EDTA 5.3 mM) for 10 min at 37° C. The detached cells were transferred to tubes, isolated by centrifugation, washed three times using ice-cold PBS, assayed for accumulated radioactivity using a gamma counter, and finally assayed for cell protein using the published method [Lowry, O. H., et al., J. Biol. Chem., 193:265-275 (1951)].
In some experiments the uptake of reduced ^125 I-BBIssPal into cells was determined. ^125 I-BBIssPal was reduced with DTT (50 mM) at 60° C. for 5 min followed by a further 25 min at 37° C. In control experiments, ^125 I-BBIssPal was exposed in medium to the same temperatures without being exposed to DTT.
The uptake of ^125 I-BBIssPal in the presence of BSA (fatty acid free) was determined as follows. ^125 I-BBIssPal was incubated with medium containing 0.1% BSA for 30 min at 37° C. before being added to the cell monolayers. In some uptake experiments, BSA was first mixed with a 3-fold molar excess of palmitic acid, and then incubated with the conjugates prior to the experiments. In the experiments where the uptake of ^125 I-BBIssPal was determined in medium containing FBS, the conjugates was simply added to the medium containing the required amount of FBS.
The cell monolayers were incubated with ^125 I-labeled conjugates at 10 μg/ml for 60 min at 37° C. The results presented are the average of three monolayers ±SEM. The uptake experiments were carried out in Dulbecco medium, in the presence and absence of added FBS.
The cell uptake of ^125 I-BBI, either as the native protein or as BBIssPal was determined before and after reduction with DTT (50 mM) for 5 min at 60° C. and 25 min at 37° C.
The uptake experiments were carried out in Dulbecco medium, in the presence and absence of added fatty acid-free BSA (BSA) or fatty acid-loaded BSA (BSA/FA). The results of studies of the uptake of ^125 I-BBI, either as the native-BBI or in conjugated form to palmitic or oleic acid, in Caco-2 cells in the presence of serum-free medium are presented in FIG. 1. The results are shown as the average ng of BBI internalized ±SEM, n=3. The uptake of ^125 I-BBIssPal into the cells was approximately 100-fold higher than that of ^125 I-BBI. […] The difference between the uptake of ^125 I-BBIssPal and ^125 I-BBIssOleic were significant.

[1] = parameters: species or system CF-1 mice; settings: mouse, in vivo, iv, 3 mg/kg
Description: Female CF-1 mice, […], weighing 20-25 g each, with free access to food and water prior to the experiments, were used for the animal experiments. ^125 I-BBI (3 mg/kg), as native-BBI or as BBIssPal or BBIssOleic conjugate, was administered to the animals via the tail vein. At 0.5, 3, and 24 hr post-injection, 3 animals from each experiment group were sacrificed and their blood (200 μl), the kidneys, the lungs, and the liver were removed, rinsed in ice-cold PBS, and assayed for accumulated radioactivity. The weights of the organs were recorded and used to adjust the concentration of the conjugates in the organs.

[2] = tested on: C3H 10T1/2(clone 8) cells; assay: In vitro transformation assay (MCA-induced); format: cell-based; settings: for Transformed foci / Fraction of dishes containing transformed foci / No. of dishes with transformed foci/No. of dishes: MCA 1 μg/ml 24 hr, conjugates 1.0 μg/ml first three weeks; for Fraction of dishes containing transformed foci / No. of dishes with transformed foci/No. of dishes: scored at six weeks
Description: Transformation assays were carried out using C3H 10T1/2(clone 8) cells according to the published recommendations [Reznikoff, C. A., et al., Cancer. Res., 33:3239-3249 (1973); Reznikoff, C. A., et al., Cancer. Res., 33:3231-3238 (1973)]. Stock cultures of mycoplasma-free cells were maintained by passing 50,000 cells per 75 cm^2 flask every seven days. Using this schedule, the cells were always passed approximately 2 days before reaching confluence. The stock culture was grown in Eagle's basal medium supplemented with 10% FBS, penicillin (100 units), and streptomycin (100 μg) and used for the transformation assays at passages of 9 to 14. The cells were passed by treating the stock cells with trypsin (0.1%) in PBS for 5 min and quenching the trypsin with 5 ml of the medium. This procedure was adapted to minimize spontaneous transformation in the stock cultures and maximize the plating efficiency in the petri dishes. The FBS stock used in the cultures was pre-screened to ensure that the serum was able to support the expression and the growth of the transformed cells.
For the transformation assays, C3H 10T1/2 cells (1000/dish) were seeded into 60 mm petri dishes and allowed to grow in a humidified 5% CO2 atmosphere in Eagle's basal medium, supplemented with 10% FBS, penicillin (100 units), and streptomycin (100 μg), for 24 hr. Subsequently, the cells were initiated by treatment with 25 μl of the 3-methylcholanthrene (MCA) in acetone stock solution ([…]) to a final concentration of 1 μg/ml of MCA (5 μg/5 ml). The cells were allowed to grow in the presence of the carcinogen or solvent for 24 hr, and the medium in each dish was then replaced with fresh medium containing no carcinogen or solvent. The medium in the dishes was replaced twice per week for the first two weeks of the assay, and thereafter once a week for the remainder four weeks of the assay. In the experiments designed to determine the transformation inhibitory activity of the conjugates, the cells were maintained in the medium containing the conjugates (1 μg/ml) for the first three weeks of the assay; thereafter, the cells were maintained in medium containing no added conjugates.
Six weeks after the carcinogen treatment, the cells were inspected under a microscope for adherence to the culture dishes and were washed with PBS and then fixed in 100% methanol. The fixed monolayers were then stained with Giemsa stain. Twenty dishes per group were treated in each experiment. In addition to the test groups, all the transformation assays contained at least three other groups: negative control (not treated with carcinogen or solvent), acetone control (treated with 25 μl of acetone), and positive control [treated with MCA (1 μg/ml) in 25 μl of acetone]. The transformed foci (>3 mm in diameter) in the plates were studied under a microscope and classified according to published guidelines as types I, II, or III [Landolph, J. R., Transfomatin assay of established cell lines: Mechanism and Application (ed. Kakunaga, T., and Yamasaki, H.) IARC Scientific Publications, Lyon, France pp. 185-201 (1985)]. Briefly, type III foci were dense, multilayered, basophilic, areas of cell growth which stained to a deep blue color with Giemsa and had rough crisscrossed edges. Type II foci were also dense, multilayered, areas of cell growth, but were stained to a purple color with Giemsa and had smoother, more defined edges compared to Type III foci. Type I foci were not scored in the assay.
BBI, either as the free protein or in conjugated form to palmitic or oleic acid, was added to the cultures at 1.0 μg/ml for the first three weeks of the transformation assay period starting immediately after the MCA treatment. MCA-treated cells were exposed to 3-methylcholanthrene, dissolved in 25 μl of acetone, at a concentration of 1 μg/ml for 24 hr. Acetone-treated cells were exposed to 25 μl of acetone for 24 hr only. […]

C3H 10T1/2 cells = assay: Plating efficiency; format: cell-based
Description: The plating efficiency (PE) of the cells was also studied in conjunction with each of the transformation assays. To determine the PE of the cells in the different treatment groups, cells (200 cells/dish) were seeded into three 60-mm petri dishes per experiment group and treated in the identical manner as the transformation assay cells. The cells in these assays were terminated at 10 days, fixed with 100% methanol, and stained with giemsa; the colonies of 50 cells or more visible under a microscope were then counted. The plating efficiency is defined as the (number of colonies/number of cells seeded)×100%.

Molecule | Effect of fatty acid-loaded BSA on uptake (Caco-2 cells) | Reduction of uptake after reduction with DTT (Caco-2 cells) | Reduction of uptake by defatted-BSA (Caco-2 cells) | Blood levels and removal from circulation [1] | Kidney accumulation [1] | Transformed foci [2] | Fraction of dishes containing transformed foci [2] | No. of dishes with transformed foci/No. of dishes [2] | Plating Efficiency (C3H 10T1/2 cells) [%] | Uptake, fold higher than that of BBI (Caco-2 cells) | Blood levels, fold higher than BBI [1] | Kidney clearance, fold lower than native-BBI [1] | Liver accumulation, fold higher than BBI [1] | Lung accumulation/levels, fold higher than BBI [1] | Retention in the liver [1] | Retention of anti-transformation activity of BBI ([2]; 1.0 μg/ml)
BBI: a hydrophilic protein which has low uptake into cells and is not orally bioavailable (protein, UniProt P01055 40-110, looked up) Bowman-Birk type proteinase …: DDESSKPCCDQCACTKSNPPQCRCSDMRLNSCHSACKSCICALSYPAQCFCVDITDFCYEPCKPSEDDKEN | not affected | did not cause a reduction in the uptake | not affected | rapidly excreted from the body without attaining high blood levels | rapidly accumulated in the kidneys | no transformed foci | 0 | 0/20 | 24 ± 2.0 | – | – | – | – | – | – | –
BBIssOleic: the oleic acid conjugated BBI (conjugate, UniProt P01055 40-110, looked up, oleyl disulfide conjugate; 125I, the oleic acid conjugated BBI) Bowman-Birk type proteinase …: DDESSKPCCDQCACTKSNPPQCRCSDMRLNSCHSACKSCICALSYPAQCFCVDITDFCYEPCKPSEDDKEN | – | – | – | higher blood levels than BBI | – | no transformed foci | 0 | 0/20 | 24 ± 3.5 | about 108 fold | about 4 fold | about 4 fold | about 4 fold | about 2 fold | significant levels of the conjugate present in the liver even at 24 hr post-injection | retained the original biological activity of BBI
